From article PMC11904528, “Discovery and preclinical development of a SdAb-based CAR-T technology for targeting CD33 in AML” (Molecular Therapy Oncology, 2025) come the findings set out here.

Like-named read-outs stand apart in the source and are kept apart here.

The target in experiment [1] is T1, CD33 recombinant ectodomain (His-tagged) (Homo sapiens, UniProt P20138).
The target of experiment [2] is T1, CD33 recombinant ectodomain (His-tagged). The experiment is described as follows: ELISA; CD33-coated plates; SdAbs titrated and detected with anti-HA HRP; relative affinities (EC50). (In general: An ELISA detects its analyte on a solid surface through an enzyme-linked reagent.)
Experiment [3] shares this target. Description: SPR; Biacore X100, NTA chip; His-tagged CD33 ectodomain captured on nickel, cross-linked with EDC/NHS, nickel stripped with EDTA (388 RU); SdAbs as analytes at 1,000-12.3 nM; single-cycle kinetics; HBS-EP+; 10 uL/min, contact 300 s, dissociation 600 s; 1:1 binding model. (In SPR one partner is held on a chip, and binding of the other changes the refractive index at the surface.)

The target in experiment [4] is CD33 recombinant ectodomain (His-tagged) (human) (UniProt P20138). The experiment is described as follows: ELISA; CD33-coated plates; SdAbs titrated and detected with anti-HA HRP; relative affinities (EC50).
Experiment [5] shares this target. The experiment is described as follows: SPR; Biacore X100, NTA chip; His-tagged CD33 ectodomain captured on nickel, cross-linked with EDC/NHS, nickel stripped with EDTA (388 RU); SdAbs as analytes at 1,000-12.3 nM; single-cycle kinetics; HBS-EP+; 10 uL/min, contact 300 s, dissociation 600 s; 1:1 binding model.
Experiment [6] has as its target T2, Biotinylated CD33 (bio-CD33) (Homo sapiens, UniProt P20138, biotin).
T2 construct: CD33 (Siglec-3), biotinylated
The experiment is described as follows: BLI; Octet N1, streptavidin SAX2 sensors; bio-CD33 immobilised at 100 nM; in-tandem epitope binning: first antibody 400 nM, then a mixture of 400 nM first and 200 nM second antibody; PBS. The conditions noted are these: both partners purified. (In general: In BLI a coated tip is dipped into the sample, and binding shifts an interference pattern.)

T1 sequence (P20138 18-259): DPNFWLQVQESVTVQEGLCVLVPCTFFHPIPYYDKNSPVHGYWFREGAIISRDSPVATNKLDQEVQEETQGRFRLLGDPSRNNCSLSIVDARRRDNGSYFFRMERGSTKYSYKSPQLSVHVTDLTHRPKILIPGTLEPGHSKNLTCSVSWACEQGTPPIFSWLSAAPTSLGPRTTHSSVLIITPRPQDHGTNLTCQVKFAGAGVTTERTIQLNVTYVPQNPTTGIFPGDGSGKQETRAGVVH
CD33 recombinant ectodomain (His-tagged) (human), sequence (P20138 18-259): as above
T2 sequence (P20138 whole entry, looked up, tested part not stated): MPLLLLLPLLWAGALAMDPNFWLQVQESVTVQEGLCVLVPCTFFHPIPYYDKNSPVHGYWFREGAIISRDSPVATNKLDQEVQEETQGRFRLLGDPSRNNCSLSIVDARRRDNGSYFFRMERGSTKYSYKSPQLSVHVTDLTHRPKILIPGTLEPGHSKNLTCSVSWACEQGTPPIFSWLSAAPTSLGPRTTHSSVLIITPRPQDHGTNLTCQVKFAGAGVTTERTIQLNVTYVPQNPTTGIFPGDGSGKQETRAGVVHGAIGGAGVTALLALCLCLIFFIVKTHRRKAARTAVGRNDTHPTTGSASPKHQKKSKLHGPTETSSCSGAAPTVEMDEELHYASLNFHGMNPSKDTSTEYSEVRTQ

B1: Nb16 (VHH)
VHH: EVQLVESGGGLVQTGGSLRLSCAASGRTFSPLAMGWFRQAPGREREFVAGITWSGGSLYYGDFVKGRFTISRDAAKNTLYLQMNSLKPEDTAVYYCAARDYSGDSNFQVTRPSEWDHWGQGTQVTVSS
On to B1, for which the Kd in experiment [1] is 4.18 nM. Besides, the EC50 in experiment [2] turned out to be 1.91 nM. Moreover, in experiment [3], the Kd is 4.18 nM, the koff was found to be 4.64e-05 s⁻¹ and the kon came to 11100 M⁻¹ s⁻¹.

B2: Nb3 (VHH)
VHH: EVQLVESGGGLVQAGGSLSLSCAASGRTFSSYVMGWFRQAPGKEREFVAALTWSGGSTYYGDSAKGRFTISRDNAKNTVYLQMNSLKPEDTADYYCAAAALEGGAYHIATMSTYNYWGQGTQVTVSS
notes: llama VHH; From a phage display library of a llama immunised with CD33; also called SdAb Nb3; source: E. coli expression strains (pETMod, OmpA periplasmic signal), purified (IMAC, IEC)
Regarding B2, the EC50 in experiment [4] is 16.7 nM. Further, in experiment [5], the Kd stood at 115 nM, the koff was 0.0017 s⁻¹ and the kon was determined as 14700 M⁻¹ s⁻¹. Besides, the binding result in experiment [6] is “binds”.

B3: Nb1 (VHH)
VHH: QVQLQESGGGLVQVGGSLRLSCAASGRAFSTDIMAWFRQAPGKEREFVAAIKWNADNTYDTNSVKGRFTISRDNAKNTNYLEVNSLKPEDTAVYYCASGFSSRPYSDSDSRKYIYWGQGTQVTVSS
notes: llama VHH; From a phage display library of a llama immunised with CD33; also called SdAb Nb1; source: E. coli expression strains (pETMod, OmpA periplasmic signal), purified (IMAC, IEC)
As to B3, the EC50 in experiment [2] (both partners purified) was found to be 6.4 nM. In experiment [3] (both partners purified), the Kd stood at 29.9 nM, the koff came out at 0.0011 s⁻¹ and the kon amounted to 36800 M⁻¹ s⁻¹.

B4: Nb8 (VHH)
VHH: EVQLVESGGGLVQDGGSLRLSCAASGRTFSSYVMGWFRQAPGKEREFVAAITWSGGSTYYADSVKGRFTISRDNAKNTVYLQMNSLKPEDTAVYYCAAFELGGGSYYYPDPNEYDYWGQGTQVTVSS
notes: llama VHH; From a phage display library of a llama immunised with CD33; also called SdAb Nb8; source: E. coli expression strains (pETMod, OmpA periplasmic signal), purified (IMAC, IEC)
Regarding B4, the EC50 in experiment [2] (both partners purified) stood at 3.99 nM. In experiment [3] (both partners purified), the Kd stood at 14.4 nM, the koff stood at 0.000356 s⁻¹ and the kon came to 24800 M⁻¹ s⁻¹.

B5: Nb17 (VHH)
VHH: QVQLQESGGGLVQTGGSLRLSCAVSGSTFSDYVIGWFRQAPGKERDFVAAITWSGGSTYYADSVKGRFIISRDNAKNTVYLQMNSLKPEGTAVYYCAALQLKGGSYYYPAPEEYSYWGQGTQVTVSS
notes: llama VHH; From a phage display library of a llama immunised with CD33; also called SdAb Nb17; source: E. coli expression strains (pETMod, OmpA periplasmic signal), purified (IMAC, IEC)
For the molecule B5, the EC50 in experiment [2] (both partners purified) was 4.05 nM. Also, in experiment [3] (both partners purified), the Kd came out at 4.99 nM, the koff was 8.24e-05 s⁻¹ and the kon worked out at 16500 M⁻¹ s⁻¹.

The Kd is the constant that tells how readily two partners part at equilibrium. What is called EC50 is the concentration giving half of the maximal effect. What is called koff is the first-order rate constant of dissociation. In general, kon refers to a measure of how fast the partners come together.
